Data from publication PMC8297725.

Experiments:
Asp181 [1] = molecular target: Asp181 (UniProt position 181, YGTWPDFGVPE); assay: kinetics; conditions: 25 °C; constant ionic strength buffer mix (value not stated); 50 mM sodium acetate, 100 mM Tris, 100 mM bis-Tris; steady-state turnover with the substrate pNPP
Cys215 = Cys215 (UniProt position 215, PVVVHCSAGIG); assay: kinetics; conditions: 25 °C; constant ionic strength buffer mix (value not stated); 50 mM sodium acetate, 100 mM Tris, 100 mM bis-Tris; steady-state turnover with the substrate pNPP
Asp181 [2] = molecular target: Asp181 (UniProt position 181, YTTWPDFGVPE); assay: kinetics; conditions: 25 °C; constant ionic strength buffer mix (value not stated); 50 mM sodium acetate, 100 mM Tris, 100 mM bis-Tris; steady-state turnover with the substrate pNPP
Asp356 = Asp356 (UniProt position 356, VGNWPDQTAVS); assay: kinetics; conditions: 25 °C; constant ionic strength buffer mix (value not stated); 50 mM sodium acetate, 100 mM Tris, 100 mM bis-Tris; steady-state turnover with the substrate pNPP
Cys403 [3] = molecular target: T1, Cys403 (UniProt position 403, RPVIHCRAGVG); assay: kinetics; conditions: 25 °C; constant ionic strength buffer mix (value not stated); 50 mM sodium acetate, 100 mM Tris, 100 mM bis-Tris; steady-state turnover with the substrate pNPP
Cys403 [4] = molecular target: T1, Cys403; assay: chemical modification; conditions: ligand-free enzyme

Substance | pKa (Asp181 [1]) | pKa (Cys215) | pKa (Asp181 [2]) | pKa (Asp356) | pKa (Cys403 [3]) | pKa (Cys403 [4]) | pKa (Cys403 [4]; cited from earlier work)
PTP1B T177G (Homo sapiens; T177G) | 6.37 ± 0.28 | 5.44 ± 0.37 | – | – | – | – | –
Protein tyrosine phosphatase 1B (PTP1B), wild type (Homo sapiens) | – | 5.08 ± 0.20 | 6.44 ± 0.26 | – | – | – | –
YopH (Yersinia protein tyrosine phosphatase), wild type (Yersinia (species not stated in the article)) | – | – | – | 5.58 ± 0.34 | 5.02 ± 0.27 | 4.6 ± 0.2 | 4.67 ± 0.15
